Results on two molecules are retold here after patent US20250339531A1 (FRED HUTCHINSON CANCER CENTER, published 2025).

In assay [1] the target is T1, Signal transducer and activator of transcription 1-alpha/beta (Homo sapiens, UniProt P42224 2-750).
T1 construct: also called STAT1
T1 sequence (looked up): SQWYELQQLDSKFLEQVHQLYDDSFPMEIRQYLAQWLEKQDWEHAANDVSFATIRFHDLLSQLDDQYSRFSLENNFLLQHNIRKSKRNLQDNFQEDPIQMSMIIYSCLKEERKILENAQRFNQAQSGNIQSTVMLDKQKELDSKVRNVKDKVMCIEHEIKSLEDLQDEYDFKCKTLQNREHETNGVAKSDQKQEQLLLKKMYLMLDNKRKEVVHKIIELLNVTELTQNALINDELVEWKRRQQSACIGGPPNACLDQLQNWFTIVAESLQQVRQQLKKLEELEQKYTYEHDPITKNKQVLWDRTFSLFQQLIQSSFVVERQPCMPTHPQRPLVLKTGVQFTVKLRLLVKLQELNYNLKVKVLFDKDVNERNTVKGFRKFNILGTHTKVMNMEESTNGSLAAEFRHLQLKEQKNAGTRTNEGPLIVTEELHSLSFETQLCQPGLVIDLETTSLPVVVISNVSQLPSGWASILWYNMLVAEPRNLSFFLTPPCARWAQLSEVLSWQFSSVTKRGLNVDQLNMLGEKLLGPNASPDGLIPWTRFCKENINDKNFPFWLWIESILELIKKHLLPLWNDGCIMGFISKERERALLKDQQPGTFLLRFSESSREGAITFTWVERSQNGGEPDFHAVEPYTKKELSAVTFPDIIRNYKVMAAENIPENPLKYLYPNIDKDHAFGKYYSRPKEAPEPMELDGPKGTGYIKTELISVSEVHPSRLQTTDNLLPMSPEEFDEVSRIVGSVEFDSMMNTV
Nature of the assay: anti-FLAG co-IP LC-MS, exp 4, +Dox +IFNG.

Assay [2] addresses T2, Proteasome subunit alpha type (Homo sapiens).
T2 construct: also called PSMA6
The assay is described as follows: anti-FLAG co-IP LC-MS, exp 4, +Dox +IFNG.

The target of assay [3] is T3, Immunoglobulin kappa variable 2-40 (Homo sapiens).
T3 construct: also called IGKV2-40
T3 sequence (A0A087WW87 20-121): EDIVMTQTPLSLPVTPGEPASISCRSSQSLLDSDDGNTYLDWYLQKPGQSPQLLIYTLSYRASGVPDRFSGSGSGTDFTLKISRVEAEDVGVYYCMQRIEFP
Nature of the assay: anti-FLAG co-IP LC-MS, exp 4, +Dox +IFNG.

Assay [4] deals with T4, Uncharacterized protein (Fragment) (Homo sapiens).
T4 construct: also called NA (Homology to TAP2)
Nature of the assay: anti-FLAG co-IP LC-MS, exp 4, +Dox +IFNG.

Assay [5] addresses T1, Signal transducer and activator of …. Nature of the assay: anti-FLAG co-IP and western of truncation series in MB135 cells (FIG. 27A).

B1: i3XFLAG-NLS-CTDaa154-419mL1dL2 (other)
chain: MDYKDHDGDYKDHDIDYKDDDDKPPKRMRREPKKKRKVGRAPAQAGGLCSAAPGGGHPAPSWVAFAHTGAWGTGLPAPHVPCAPGALPQGAFVSQAARAAPALQPSQAAPAEGISQPAPARGDFAYAAPAPPDGALSHPQAPRWPPHPGKSREDRDPQRDGLPGPCAVAQPGPAQAGPQGQGVLAPPTSQGSPWWGWGRGPQVAGAAWEPQAGAAPPPQPAPPDASASARQGQMQGIPAPSQALQEPAPWSALPCGLLAAEAAASPEFLQQAQPLLETEAPGELEASEEAASLEAPLSEEEYRA
notes: also called longCTDmL1dL2; longCTDmL1DL2
Take B1: the PSMs came to 18 PSMs in assay [1], 4 PSMs in assay [2], 1 PSMs in assay [3] and 2 PSMs in assay [4].

B2: iDUX4aa154-271 (other)
chain: GRAPAQAGGLCSAAPGGGHPAPSWVAFAHTGAWGTGLPAPHVPCAPGALPQGAFVSQAARAAPALQPSQAAPAEGISQPAPARGDFAYAAPAPPDGALSHPQAPRWPPHPGKSREDRD
notes: not shown: N-terminal 3×FLAG tag and NLS
Turning to B2, the binding result in assay [5] is on record as “no binding”.
